Results published in publication PMC12022973 (2025).
Positions of bridges follow the written chain, without caps; N, C: chain ends. Chains are numbered I, II in the order given. No end group written: not given here.

Target: preformed MYC/MAX heterodimer (human | , UniProt P61244 1-160)
Assay: FP

Chain of preformed MYC/MAX heterodimer (chain, as listed by the source, chain 1 of 2): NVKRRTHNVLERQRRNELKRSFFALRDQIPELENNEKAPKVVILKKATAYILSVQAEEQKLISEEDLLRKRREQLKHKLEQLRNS
Chain of preformed MYC/MAX heterodimer (P61244 2-160, chain 2 of 2): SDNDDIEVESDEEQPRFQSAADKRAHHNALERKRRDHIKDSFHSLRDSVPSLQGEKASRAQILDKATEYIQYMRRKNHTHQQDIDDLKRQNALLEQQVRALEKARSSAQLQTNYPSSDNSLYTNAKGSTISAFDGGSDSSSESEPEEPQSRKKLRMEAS

Kd: 460 nM
B1: fluorescein-labeled CHD^Max-1 (cross-linked helix dimer derived from MAX) (designed binder)
chain 1: LREKIATLQWCIEELRK
chain 2: LRRKNETHQWEIEELC
modifications: bridge I:11-II:16; not fully specified (bridges); also: fluorescein label, chain and position not given here
